Test results from publication PMC7661038, “Dot1l interacts with Zc3h10 to activate Ucp1 and other thermogenic genes” (eLife, 2020).

Target: T1, Flag-Zc3h10 (mouse, UniProt Q8R205 1-435)
T1 sequence (looked up): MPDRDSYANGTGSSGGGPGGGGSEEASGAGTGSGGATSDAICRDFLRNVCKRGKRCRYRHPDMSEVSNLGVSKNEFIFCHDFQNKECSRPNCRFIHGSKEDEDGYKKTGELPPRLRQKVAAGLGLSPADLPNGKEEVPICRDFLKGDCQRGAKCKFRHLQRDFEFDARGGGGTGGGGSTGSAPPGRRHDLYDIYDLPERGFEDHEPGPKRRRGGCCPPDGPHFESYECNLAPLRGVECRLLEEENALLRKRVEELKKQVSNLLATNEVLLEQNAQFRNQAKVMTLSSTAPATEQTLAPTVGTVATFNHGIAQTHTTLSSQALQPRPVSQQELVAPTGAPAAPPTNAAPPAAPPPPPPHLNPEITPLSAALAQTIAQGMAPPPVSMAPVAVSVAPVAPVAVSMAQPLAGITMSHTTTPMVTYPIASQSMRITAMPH
Test: cell-based or functional assay

B1: HA-Dot1l (enzyme, mouse, UniProt Q6XZL8 1-1540, looked up)
chain: MGEKLELRLKSPVGAEPAVYPWPLPVYDKHHDAAHEIIETIRWVCEEIPDLKLAMENYVLIDYDTKSFESMQRLCDKYNRAIDSIHQLWKGTTQPMKLNTRPSNGLLRHILQQVYNHSVTDPEKLNNYEPFSPEVYGETSFDLVAQMIDEIKMTEDDLFVDLGSGVGQVVLQVAAATNCKHHYGVEKADIPAKYAETMDREFRKWMKWYGKKHAEYTLERGDFLSEEWRERIANTSVIFVNNFAFGPEVDHQLKERFANMKEGGRIVSSKPFAPLNFRINSRNLSDIGTIMRVVELSPLKGSVSWTGKPVSYYLHTIDRTILENYFSSLKNPKLREEQEAARRRQQRENKSNATTPTKVPESKAAATEAPADSGAEEEKSGVATVKKPSPSKARKKKLNKKGRKMAGRKRGRPKKMSAASAERKSKKSQSTLDLLHSPPPAPPSASPQDAYRAPHSPFYQLPPSTQLHSPNPLLVAPTPPALQKLLESFRIQYLQFLAYTKTPQYKANLQQLLDQEKEKNTQLLGTAQQLFGHCQAQKEEIRRLFQQKLDELGVKALTYNDLIQAQKEISAHNQQLREQSEQLEKDNSELRSQSLRLLRARCEELRLDWSTLSLENLRKEKQALRSQISEKQRHCLELQISIVELEKTQRQQELLQLKSCVPPDDALSLHLRGKGALGRELEADAGRLRLELDCAKISLPHLSSMSPELSMNGHAASYELCNAASRPSSKQNTPQYLASPLDQEVVPCTPSHSGRPRLEKLSGLALPDYTRLSPAKIVLRRHLSQDHTGASKAATSEPHPRPEHPKESSLPYQSPGLSNSMKLSPQDPPLASPATSPLTSEKGSEKGVKERAYSSHGETITSLPVSIPLSTVQPNKLPVSIPLASVVLPSRAERARSTPSPVPQPRDSSATLEKQTGASAHGAGGAGAGSRSLAVAPTGFYAGSVAISGALASSPAPLASGMESAVFDESSGPSSLFATMGSRSTPPQHPPLLSQSRNSGPASPAHQLTASPRLSVTTQGSLPDTSKGELPSDPAFSDPESEAKRRIVFSISVGASSKQSPSTRHSPLTSGTRGDCVQSHGQDSRKRSRRKRASAGTPSLSTGVSPKRRALPTVAGLFTQSSGSPLNLNSMVSNINQPLEITAISSPESSLKSSPTPYQDHDQPPVLRKERPLGLTNGAHYSPLTSDEEPGSEDEPSSARIERKIATISLESKSPPKTLENGGGLVGRKSAPSSEPINSSKWKSTFSPISDLGLAKAVDSPLQAGSALSHSPLFSFRPSLEEPAAEAKLPTHPRKSFAGSLGAAEGPSPGTNPPNGLAFSGGLAADLGLHSFNDGASLSHKGPDVTGLSASLSFPSQRGKDSTTEANPFLSRRQPEGLGGLKGEGNANKESGESLPLCGPSDKASLPHGSRASKGRDRELDFKGGHNLFISAAAVPPGGLLGGPGLVTVASSAGSATPTAQAPRPFLSTFAPGPQFTLGPMSLQANLGSVAGSSVLQSLFSTVPAAAGLVHVSSTATRLTNSHTMGSFSSGVAGGTVGGN
  Ucp1 promoter activity, luciferase reporter (−5.5 kb Ucp1-Luc) in HEK293 cells cotransfected with Zc3h10 and Dot1l, against empty vector control (Zc3h10 alone over 3-fold; Dot1l alone no activation): 11 fold
